In patent US20140017260A1 one finds suppression of Runx2 activation of the p6OSE2-Luc reporter construct data, which are given here for five substances.

The target in this assay is Runx2. As to the kind of experiment: cell-based or functional assay.
“Rorβ ΔLBD (deletion of the ligand binding domain), C-terminal FLAG (receptor)” showed a suppression of Runx2 activation of the p6OSE2-Luc reporter construct of 88%. “Rorβ ΔAD (deletion of the activation domain), C-terminal FLAG (receptor)”: the suppression of Runx2 activation of the p6OSE2-Luc reporter construct is 75%.

On to “Rorβ E28A/G29A double-point mutant in the DBD, C-terminal FLAG (receptor)”, for which the suppression of Runx2 activation of the p6OSE2-Luc reporter construct amounted to 96%.

Substance “Rorβ ΔHinge (deletion of the Hinge domain), C-terminal FLAG (receptor)” displayed a suppression of Runx2 activation of the p6OSE2-Luc reporter construct of 28%. With “retinoic acid receptor-related orphan receptor beta (Rorβ), wild-type, with C-terminal FLAG epitope”, the suppression of Runx2 activation of the p6OSE2-Luc reporter construct worked out at 91%.
